Measured values taken from publication PMC7232488.

Tests used:
[1] = molecular target: Gag (Human immunodeficiency virus 1) (UniProt O93182); conditions: cited from earlier work
[2] = test system: Δ1 SP1 Gag (HIV-1 (isolate BH10)); assay: MST
[3] = test system: WM Gag (HIV-1 (isolate BH10)); assay: MST

Sequence of Gag (O93182 2-500): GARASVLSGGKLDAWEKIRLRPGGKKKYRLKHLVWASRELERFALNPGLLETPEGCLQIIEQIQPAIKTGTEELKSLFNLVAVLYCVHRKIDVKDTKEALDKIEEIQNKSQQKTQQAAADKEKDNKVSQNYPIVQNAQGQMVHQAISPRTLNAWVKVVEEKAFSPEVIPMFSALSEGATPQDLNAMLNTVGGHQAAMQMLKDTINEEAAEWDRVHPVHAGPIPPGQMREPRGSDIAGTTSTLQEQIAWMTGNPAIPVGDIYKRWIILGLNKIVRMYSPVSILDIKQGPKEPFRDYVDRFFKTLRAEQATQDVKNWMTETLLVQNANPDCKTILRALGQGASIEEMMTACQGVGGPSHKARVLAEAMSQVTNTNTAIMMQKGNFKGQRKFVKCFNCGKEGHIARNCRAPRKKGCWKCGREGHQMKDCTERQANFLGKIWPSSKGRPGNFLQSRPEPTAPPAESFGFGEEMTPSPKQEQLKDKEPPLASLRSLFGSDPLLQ

Substance	Kd [1]	binding signal (fold difference vs WT Gag) [2]	binding signal (fold decrease in affinity vs WT Gag) [3]
Gag (from UniProt O93182)	5.5 µM	–	–
reverse complement RNA (non-Ψ control)	–	2	–
Ψ RNA	–	2	3.5
